Measured values reported in patent publication US20200102347A1 (AUCTUS BIOLOGIES, published 2020).
Changes are numbered by the printed parent chain. In names and notes the source's numbering stands. No end group written: not given here. *: point of attachment. RhodamineB = CCN(CC)c1ccc2c(-c3ccccc3C(=O)*)c3ccc(=[N+](CC)CC)cc-3oc2c1

T1: RPtag(large) f137d (Thermoanaerobacter tengcongensis)
T1 construct: also called F137D RPtag(large)
T1 chain: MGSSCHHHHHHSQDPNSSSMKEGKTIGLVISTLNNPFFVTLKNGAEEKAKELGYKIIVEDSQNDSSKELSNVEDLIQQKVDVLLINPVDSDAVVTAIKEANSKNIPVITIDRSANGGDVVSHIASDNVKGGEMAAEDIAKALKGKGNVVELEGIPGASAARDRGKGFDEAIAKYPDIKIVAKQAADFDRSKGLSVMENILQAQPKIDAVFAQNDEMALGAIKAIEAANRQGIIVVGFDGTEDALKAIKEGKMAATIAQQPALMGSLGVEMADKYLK

T2: RPtag(small) Nd2, Cd4 (Thermoanaerobacter tengcongensis)
T2 peptide: RhodamineB-KIPNFIPAELKLITK

T3: MaturePDGF-β_NterminalPeptide
T3 construct: an N-terminal G was added and is left out of the numbering; also called PDGF-β peptide
T3 peptide: RhodamineB-GSLGSLTIAEPAMIAE

T4: RP-Tag Small (Sequence 3: SEQ ID NO:13 with a glycine serine tail) (Thermoanaerobacter tengcongensis, chain 1: N-terminal Rhodamine B / Rhodamine 6B label (FIG. 4 legend of Sequence 3))
T4 construct: also called RP-small peptide
T4 peptide: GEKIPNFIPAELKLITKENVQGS

T5: RPtag(small) l14a (Thermoanaerobacter tengcongensis, N-terminal rhodamine)
T5 peptide: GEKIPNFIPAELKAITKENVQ

B1: RPtag(small) Nd2, p5a, e18a (peptide)
peptide: RhodamineB-KIANFIPAELKLITKANVQ
modifications: also: also used unlabeled as competitor
notes: Rhodamine labeled in the Kd assays; also called RPtag(small) (tight)
B2: Nterminally_tagged_RPtag(small)Nd8,Cd4(fast)_tagRFP (other)
chain: MGSSPAELKLITKGSENLYFQGGSMVSKGEELIKENMHMKLYMEGTVNNHHFKCTSEGEGKPYEGTQTMRIKVVEGGPLPFAFDILATSFMYGSRTFINHTQGIPDFFKQSFPEGFTWERVTTYEDGGVLTATQDTSLQDGCLIYNVKIRGVNFPSNGPVMQKKTLGWEANTEMLYPADGGLEGRSDMALKLVGGGHLICNFKTTYRSKKPAKNLKMPGVYYVDHRLERIKEADKETYVEQHEVAVARYCDLPSKLGHKLNGSSGHHHHHHHH
notes: also called tagRFP containing an N-terminal RPtag (small) Nd8Cd4 tag
B3: native RPtag(small) (peptide)
peptide: RhodamineB-GEKIPNFIPAELKLITKENVQ
notes: Synthetic peptide
B4: RPtag(small) l14k (peptide)
peptide: RhodamineB-GEKIPNFIPAELKKITKENVQ
notes: also called L14K RPtag(small)
B5: NativeRPtag(large)_with_Tags_and_Cys (other)
chain: T1 chain with D137F
notes: Unlabeled in anisotropy assays; coupled through the engineered N-terminal Cys to SulfoLink agarose or maleimide plates in column, pull-down and ELISA assays

How the values were obtained:
[1] = molecular target: B5; test: fluorescence anisotropy; Tween20 (2%)
[2] = molecular target: B5; test: fluorescence anisotropy; DMSO (20%)
[3] = molecular target: B5; test: fluorescence anisotropy; KCl (3M)
[4] = molecular target: B5; test: fluorescence anisotropy; No Additive; No Additive; 100 mM Tris pH 8.0, 0.005% Tween 20 (Table 3)
[5] = molecular target: B5; test: fluorescence anisotropy; CaCl2 (3M)
[6] = molecular target: B5; test: fluorescence anisotropy; sorbitol (3M)
[7] = molecular target: B5; test: fluorescence anisotropy; acetone (20%)
[8] = molecular target: B5; test: fluorescence anisotropy; TritonX-100 (2%)
[9] = molecular target: B5; test: fluorescence anisotropy; 50 mM Tris pH 8.0, 0.005% Tween 20, no additive
[10] = molecular target: B5; test: fluorescence anisotropy; PG (50%)
[11] = molecular target: B5; test: calculated from koff and Kd; 50 mM Tris pH 8.0, 0.005% Tween 20, no additive
[12] = molecular target: B5; test: fluorescence anisotropy; DTT (100 mM)
[13] = molecular target: B5; test: fluorescence anisotropy; EtOH (20%)
[14] = molecular target: B5; test: fluorescence anisotropy; glycerol (20%)
[15] = molecular target: B5; test: fluorescence anisotropy; NiCl2 (100 mM)
[16] = molecular target: B5; test: competition fluorescence anisotropy; 1 µM RPtag large and 1 µM rhodamine PDGF-β N-terminal peptide (the displaced ligand), unlabeled Nd2,p5a,e18a titrated, 1 h; 50 mM Tris pH 8.0, 0.005% Tween20
Procedure: The curves were fit with the equation f=y0+(ymax−y0)*(Ptot+x+Kd−sqrt((Ptot+x+Kd)\hat{ }2−4*Ptot*x))/(2*Ptot), where y0 is the baseline anisotropy, ymax is the maximum anisotropy, Ptot is the fixed concentration of labeled peptide used, x is the variable concentration of protein used, and Kd is the measured Kd. […] The curves were fit empirically to a 4 parameter logistic regression. In both cases, the buffer was 50 mM Tris pH 8.0, 0.005% Tween20. Curves were fit in 4 independent trials each, and the data was averaged for display. Points are mean±SEM (n=3).

[17] = molecular target: B5; test: fluorescence anisotropy; MeOH (20%)
[18] = molecular target: B5; test: fluorescence anisotropy, competitor chase; 50 mM Tris pH 8.0, 0.005% Tween 20, no additive
[19] = molecular target: B5; test: fluorescence anisotropy; NaCl (3M)
[20] = molecular target: B5; test: fluorescence anisotropy; BME (10%)
[21] = molecular target: B5; test: fluorescence anisotropy; ribose (3M)
[22] = molecular target: B5; test: fluorescence anisotropy; NH4SO4 (3M)
[23] = molecular target: B5; test: fluorescence anisotropy; MgCl2 (3M)
[24] = molecular target: B5; test: fluorescence anisotropy; MnSO4 (10 mM)
[25] = molecular target: B5; test: immobilized RPtag(large) column; bound in 3 M NaCl, eluted with 3 M imidazole
Procedure: Briefly, columns, as described above, were first equilibrated with 10 mL 100 mM Tris pH 8.0, 3 M NaCl, 0.005% Tween20. […] The column was then washed with 10 mL of the same buffer. Finally, bound target molecules were eluted with 10 mL of 100 mM Tris pH 8.0, 3 M imidazole, 0.005% Tween20.

[26] = molecular target: B5; test: fluorescence anisotropy, chase with 0.1 mM unlabeled native RPtag small, first order fit; no additive; first order fit of the dissociation traces (n=15)
Source text: Data processing was done as in panel a, except the red fits were to the single exponential decay equation y=y0+A*exp(−b*t).
Panel e is a graph of the initial rates of the traces represented in d. […] Data are mean±SE (n=3).

[27] = molecular target: B5; test: calculated from koff and Kd; no additive; calculated in the text from koff and Kd
[28] = molecular target: B5; test: fluorescence anisotropy; No Additive
[29] = molecular target: T6, Bovine Serum Albumin (bovine, UniProt P02769 25-607); test: fluorescence anisotropy; 1 nM rhodamine native RPtag (small), BSA titrated
T6 construct: also called BSA
T6 sequence (P02769 25-607 limits assumed): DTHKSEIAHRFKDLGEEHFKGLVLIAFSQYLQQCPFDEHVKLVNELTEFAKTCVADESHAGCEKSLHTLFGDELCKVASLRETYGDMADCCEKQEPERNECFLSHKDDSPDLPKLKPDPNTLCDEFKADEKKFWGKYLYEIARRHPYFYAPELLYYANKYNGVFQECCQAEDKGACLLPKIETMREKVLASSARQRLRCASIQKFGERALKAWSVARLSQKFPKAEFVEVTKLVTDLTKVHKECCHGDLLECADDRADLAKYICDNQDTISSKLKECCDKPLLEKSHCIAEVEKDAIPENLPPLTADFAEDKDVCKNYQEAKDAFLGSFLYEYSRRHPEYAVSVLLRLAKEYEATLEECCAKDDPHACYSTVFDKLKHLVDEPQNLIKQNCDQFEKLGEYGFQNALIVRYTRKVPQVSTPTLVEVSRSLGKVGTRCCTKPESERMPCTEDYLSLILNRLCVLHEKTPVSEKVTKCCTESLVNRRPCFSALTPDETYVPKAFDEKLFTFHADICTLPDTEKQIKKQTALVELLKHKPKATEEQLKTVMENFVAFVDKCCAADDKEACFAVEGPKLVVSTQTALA
Procedure: (§1) Kd's were calculated according to the equation f=y0+(ymax−y0)*(Ptot+x+Kd−sqrt((Ptot+x+Kd)\hat{ }2−4*Ptot*x))/(2*Ptot), where y0 is the baseline anisotropy, ymax is the maximum anisotropy, Ptot is the fixed concentration of labeled peptide used, x is the variable concentration of protein used, and Kd is the measured Kd.

[30] = molecular target: B5; test: fluorescence anisotropy, association kinetics
[31] = molecular target: B5; test: calculated from koff and Kd
[32] = molecular target: B5; test: fluorescence anisotropy kinetics
[33] = molecular target: B5; test: fluorescence anisotropy, competitor chase
[34] = molecular target: B5; test: fluorescence anisotropy
[35] = molecular target: T1, RPtag(large) f137d; test: fluorescence anisotropy (FIG. 14)
Procedure: (§2) Resultant curves were fit with the equation f=y0+(ymax−y0)*(Ptot+x+Kd−sqrt((Ptot+x+Kd)\hat{ }2−4*Ptot*x))/(2*Ptot), where y0 is the baseline anisotropy, ymax is the maximum anisotropy, Ptot is the fixed concentration of labeled peptide used, x is the variable concentration of protein used, and Kd is the measured Kd. […] Buffer was 50 mM Tris pH 8.0, 0.005% tween20.

[36] = molecular target: B3; test: fluorescence anisotropy; 1 nM rhodamine native RPtag (small), RPtag (large) titrated
Procedure: as §1

[37] = molecular target: T2, RPtag(small) Nd2, Cd4; test: fluorescence anisotropy; 2 nM rhodamine Nd2Cd4, unlabeled RPtag large variant titrated; bar of Ka = 1/Kd, right axis
Procedure: (§3) After the incubation, fluorescence anisotropy was measured, and the resultant curves were fit with the equation f=y0+(ymax−y0)*(Ptot+x+Kd−sqrt((Ptot+x+Kd)\hat{ }2−4*Ptot*x))/(2*Ptot), where y0 is the baseline anisotropy, ymax is the maximum anisotropy, Ptot is the fixed concentration of labeled peptide used, x is the variable concentration of protein used, and Kd is the measured Kd. […] Buffer was 50 mM Tris pH 8.0, 0.005% Tween20.

[38] = molecular target: B3; test: fluorescence anisotropy after a 15 min 121 C autoclave cycle of RP-tag (large); RP-tag (large) autoclaved 15 min at 121 C before the measurement
[39] = molecular target: B3; test: fluorescence anisotropy, 1 nM rhodamine peptide
Procedure: as §1

[40] = molecular target: T3, MaturePDGF-β_NterminalPeptide; test: fluorescence anisotropy, 20 nM rhodamine PDGF-β N-terminal peptide
Procedure: as §3

[41] = molecular target: T4, RP-Tag Small (Sequence 3: SEQ ID NO:13 …); test: fluorescence anisotropy; 50 nM N-terminal Rhodamine B RP-Tag Small, RP-Tag Large titrated; 50 mM Tris pH 8.0, 150 mM NaCl, 10 mM 2-mercaptoethanol, 0.005% Tween 20
Procedure: (§4) Anisotropy was then measured, and a Kd calculated by fitting the data to the equation f=y₀+(yₘₐₓ−y₀)*(Pₜₒₜ+x+Kd−sqrt((Pₜₒₜ+x+Kd)\hat{ }2-4*Pₜₒₜ*x))/(2*Pₜₒₜ), where y₀ is the baseline anisotropy, yₘₐₓ is the maximum anisotropy, Pₜₒₜ is the fixed concentration of labeled peptide used, x is the variable concentration of protein used, and Kd is the measured Kd.

[42] = molecular target: T4, RP-Tag Small (Sequence 3: SEQ ID NO:13 …); test: fluorescence anisotropy, 50 nM Rhodamine B RP-Tag Small
Procedure: as §4

[43] = molecular target: B4; test: fluorescence anisotropy; 1 nM rhodamine RPtag small peptide, unlabeled RPtag large titrated, 1 h; 50 mM Tris pH 8.0, 0.005% Tween20; bar of Ka = 1/Kd
Procedure: as §2

[44] = molecular target: T5, RPtag(small) l14a; test: as above
Procedure: as §2

[45] = molecular target: B3; test: fluorescence anisotropy
Procedure: as §1

Kd [1] | Kd [2] | Kd [3] | Kd [5] | Kd [6] | Kd [7] | Kd [8] | Kd [9] | Kd [10] | kon [11] | Kd [12] | Kd [13] | Kd [14] | Kd [15] | Kd [17] | koff [18] | Kd [19] | Kd [20] | Kd [21] | Kd [22] | Binder | also measured
4.7 nM | 0.023 nM | 0.011 nM | 150 nM | < 0.001 nM | 0.019 nM | 0.046 nM | 0.047 nM | 49 nM | 4.67e+06 M⁻¹ s⁻¹ | 0.073 nM | 0.1 nM | < 0.001 nM | 2.2 nM | 0.056 nM | 0.000217 s⁻¹ | < 0.001 nM | 6.7 nM | < 0.001 nM | 44 nM | B1 | Kd [4]: 0.037 nM; IC50 (read off the curve) [16]: ~500 nM; Kd [23]: 350 nM; Kd [24]: 22 nM
– | – | – | – | – | – | – | – | – | – | – | – | – | – | – | – | – | – | – | – | B2 | binding result [25]: binds
0.49 nM | 0.17 nM | < 0.001 nM | 330 nM | 2.5 nM | 0.15 nM | 0.64 nM | 0.21 nM | 19 nM | 717000 M⁻¹ s⁻¹ | 0.51 nM | 0.17 nM | 0.034 nM | 3.2 nM | 0.11 nM | 0.000152 s⁻¹ | 0.0027 nM | 5.3 nM | 0.023 nM | 1.5 nM | B3 | koff [26]: 0.0002 s⁻¹; kon [27]: ~767000 M⁻¹ s⁻¹; Kd [28]: 0.21 nM; binding result [29]: no binding; Keq (S-S*) [30]: 1.6; kf (S to S*) [30]: 0.092 min⁻¹; kr (S* to S) [30]: 0.056 min⁻¹; Kd [23]: 124 nM; Kd [24]: 160 nM
– | – | – | – | – | – | – | – | – | – | – | – | – | – | – | – | – | – | – | – | RhodamineB-GEKIANFIPAELKLITKENVQ [RPtag(small) p5a] | kon [31]: 1.83e+06 M⁻¹ s⁻¹; Keq (S-S*) [30]: 1.8; kf (S to S*) [30]: 0.093 min⁻¹; kr (S* to S) [30]: 0.052 min⁻¹; fold increase of kon and koff against native [32]: ~7 fold; koff [33]: 0.0004 s⁻¹; Kd [34]: 0.23 nM
– | – | – | – | – | – | – | – | – | – | – | – | – | – | – | – | – | – | – | – | B4 | binding result [35]: binds
– | – | – | – | – | – | – | – | – | – | – | – | – | – | – | – | – | – | – | – | B5 | EC50 (read off the curve) [36]: ~0.8 nM; binding result [37]: binds; Kd [38]: 53 nM; Kd [39]: 0.2 nM; Kd [40]: 7300 nM; EC50 (read off the curve) [41]: ~30 nM; Kd [42]: 8 nM; binding result [43]: binds; binding result [44]: binds; fold better Kd than anti-6xHis/6xHis [45]: ~30 fold; fold selectivity over BSA [45]: > 50000 fold
